Patent US10378034B2, “Use of a N-acetylneuraminate lyase derived from the bacterium Aliivibrio salmonicida in the production of neuraminic acid and derivatives thereof” (Universitetet i Tromsø-Norges Arktiske Universitet, priority 2014, dated 2019)

How the values were obtained:
[1] = Differential scanning calorimetry (DSC); type: physicochemical; conditions: 500 mM NaCl, 50 mM HEPES pH 7.5
Experimental: The melting temperature of AsNAL was studied by differential scanning calorimetry (DSC). The pure protein was dialyzed overnight at 4° C. against a buffer containing 50 mM HEPES, pH 7.5 and 500 mM NaCl in a Pierce Slide-A-Lyzer dialysis cassette (3.5 kDa cut-off). Dialyzed protein was concentrated to 1.9 mg/ml using a 10 kDa cutoff Amicon Ultra spin-column (Millipore), filtered through a 0.2 μm filter (Millipore) and degassed for 15 min. DSC experiments were carried out with a Nano-Differential Scanning Calorimeter III, (calorimetry Sciences Corporation) at a scan rate of 1° C./min in the range from 1 to 80° C. and with a constant pressure of 3 atm. The dialysis buffer was used as reference in the DSC runs. The melting temperature of the protein was calculated by subtracting the buffer-buffer baseline from the protein scan. Refolding experiments were carried out by a reverse cooling scan, allowing the unfolded protein to be kept at 4° C. overnight before a new forward scan was done. The NanoAnalyze™ software was used to calculate the melting temperature. The experimental transition curves were fitted on a two-state transition model.

[2] = Long term stability at different pH (condensation activity after one month); type: physicochemical
Experimental: Long term stability of AsNAL at different pH was studied by incubating the enzyme at pH values from 6.0 to 11.0 at room temperature for a month. Buffers used were Sodium phosphate (pH 6.0-7.0), HEPES (pH 7.0-8.0), Tris-HCl (pH 8.0-9.0) and glycine (pH 9.0-11.0). The enzyme activity in the condensation direction was measured using the standard reaction mixture incubated at room temperature for 1 h, with subsequent TBA assay. The stability of AsNAL at different pH was also studied using the thermofluor method described by Ericsson et al. (2006) where increased or decreased stability is related to the increase or decrease in the melting temperature of the protein. For the thermofluor assay, the protein was dialyzed overnight at 4° C. against a buffer containing 10 mM HEPES pH 7.5, 150 mM NaCl and 2 mM β-ME in Pierce Slide-A-Lyzer dialysis cassettes with a 3.5 kDa cutoff. The dialyzed protein was mixed with 2 μl of 300× Sypro® Orange protein gel stain (Sigma) and 100 mM of different buffers ranging from pH 5.0 to pH 9.0. Thermal shifts were screened for by heating in an iCycler iQ Real Time PCR Detection System (Bio-Rad Laboratories) from 1 to 80° C. in increments of 1° C./min. The buffers tested were: Sodium acetate (pH 5.0), Phosphate citrate (pH 5.0-5.5), Sodium citrate (pH 5.5), MES (pH 6.0-6.5), Na-cacodylate (pH 6.0-6.5), Sodium dipotassium phosphate (pH 6.5), BisTris (pH 7.0), HEPES (pH 7.0-8.0), Tris-HCl (pH 7.5-8.5), Imidazole (pH 7.5-8.0), Bicine (pH 8.5) and BisTris propane (pH 8.5-9.0).

[3] = Comparative specific activity, cleavage reaction (TBA assay); type: biochemical
Experimental: The cleavage activity was determined by incubating 50 μl of a reaction mixture containing 5 mM Neu5Ac, 124 mM HEPES pH 8.0 and different concentrations of enzyme depending on assay type at selected temperatures for the required amount of time. Termination of the reactions and subsequent steps of the assay are as described above. The decrease in absorbance is correlated to the increase in cleavage activity.
Standard reaction mixtures were incubated at room temperature for 1 h before being subjected to the TBA assay.

[4] = Integrated reaction: Neu5Ac production from GlcNAc and pyruvate at alkaline pH (TBA assay); type: biochemical
Experimental: For ManNAc reactions, the buffer used was HEPES, pH 8.0. […] Experiments were performed in triplicate. For ManNAc experiments, aliquots were sampled after 0.5, 1.0, 1.5, 2.5 and 4.0 h. For GlcNAc experiments, aliquots were sampled after 12, 24, 36, 48 and 72 h. Reactions were terminated by addition of 2 μl concentrated H2SO4. The time needed for N-acetylneuraminic acid (Neu5Ac) production to get started under these conditions was known to take longer time based on initial test experiments. The thiobarbituric acid (TBA) assay procedure was followed to determine the amount of Neu5Ac produced. The activity was corrected for a blank value. The blank contained all the reaction components except for enzyme.
Initially, also glycine buffer was tested at pH 10.5 and pH 11.0 for the reactions with GlcNAc. GlcNAc will chemically epimerize to ManNAc at pH values above 9.0, which the enzyme will use as substrate for the production of Neu5Ac. The epimerization is pH dependent and will increase with increasing pH. Production of Neu5Ac was higher in CAPS buffer compared to glycine buffer, so this was chosen for further experiments.

B1: AsNAL: N-acetylneuraminate lyase isolated from the psychrophilic bacterium Aliivibrio salmonicida LFI1238, recombinantly expressed in E. coli (protein, listed as Aliivibrio salmonicida)
chain: MKKLTGLIAAPHTPFDSSSNVNFEEIDKIAKHLINDGVKGIYVCGTTGEGIHCSVEERKAIAERWVSACNHKLDIIVHTGALSIVDTLELTRHADTLDILATSAIGPCFFKPGSVSDLVEYCATIAAAAPSKGFYYYHSGMSGVNLNMEEFLIQADKRIPNLSGLKFNSGDLYEYQRCLRACDGKFDVPFGVDEFLPGALAVGAKSAVGSTYNYAAPHFNSIIEAFNKGDHDAVFNKMTNVIELIRVLVEFGGVAAGKIAMELHDINAGDPRLPLMPLSAEQKLTVVEKMRAANFLK
melting temperature (DSC) [1]: 77.5 °C
ΔH (DSC) [1]: 179.164 kcal/mol
ΔS (DSC) [1]: 2.137 kJ/(mol·K)
decrease in activity (condensation) after one month ([2]; Glycine pH 11.0, room temperature): 3.3%
decrease in activity (condensation) after one month ([2]; HEPES pH 8.0, room temperature): 14.5%
decrease in activity (condensation) after one month ([2]; Phosphate pH 7.0, room temperature): 15%
decrease in activity (condensation) after one month ([2]; Tris-HCl pH 8.0, room temperature): 14%
decrease in activity (condensation) after one month ([2]; Tris-HCl pH 8.5, room temperature): 6.4%
decrease in activity (condensation) after one month ([2]; Tris-HCl pH 9.0, room temperature): 4%
activity retained after storage compared to initial activity ([2]; all measured pH (6.0 to 11.0), one month, room temperature): More than 83%
specific activity of the cleavage reaction, higher than EcNAL ([3]; 4° C.): 25%
specific activity of the cleavage reaction, higher than EcNAL ([3]; 23° C.): 35%
specific activity of the cleavage reaction, higher than EcNAL ([3]; 37° C.): 35%
production of Neu5Ac relative to highest amount obtained with pyruvate and ManNAc 4:1 at pH 8.0 ([4]; pyruvate and GlcNAc 4:1, CAPS pH 11.0, 48 h): around 60%
production of Neu5Ac (in words) ([4]; pyruvate and GlcNAc, CAPS pH 11.5): able to produce Neu5Ac in the same range as at pH 11.0
